In publication PMC2756588:

T1: Cyk3, Q07533
T1 sequence (Q07533 1-83, looked up): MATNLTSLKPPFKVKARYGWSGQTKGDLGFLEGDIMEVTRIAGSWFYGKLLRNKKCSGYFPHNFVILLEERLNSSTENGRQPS

T2: Pex13, P80667
T2 sequence (P80667 295-386, looked up): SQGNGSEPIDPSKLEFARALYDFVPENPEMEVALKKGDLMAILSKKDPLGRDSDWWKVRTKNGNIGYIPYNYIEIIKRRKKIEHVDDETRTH

T3: Sla1-3, P32790
T3 sequence (P32790 344-424, looked up): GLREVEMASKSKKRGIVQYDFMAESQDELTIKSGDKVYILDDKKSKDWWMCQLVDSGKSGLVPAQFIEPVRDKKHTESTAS

T4: Lsb3, P43603
T4 sequence (P43603 385-451, looked up): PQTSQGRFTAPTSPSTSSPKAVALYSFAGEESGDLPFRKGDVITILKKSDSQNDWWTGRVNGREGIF

T5: Nbp2, Q12163
T5 sequence (Q12163 103-180, looked up): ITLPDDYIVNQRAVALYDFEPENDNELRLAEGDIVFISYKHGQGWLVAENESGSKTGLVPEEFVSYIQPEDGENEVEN

T6: Cdc25, P04821
T6 sequence (P04821 50-136, looked up): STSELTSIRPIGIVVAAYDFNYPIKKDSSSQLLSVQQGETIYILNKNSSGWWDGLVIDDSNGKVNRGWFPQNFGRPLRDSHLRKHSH

T7: Boi1, P38041
T7 sequence (P38041 1-86, looked up): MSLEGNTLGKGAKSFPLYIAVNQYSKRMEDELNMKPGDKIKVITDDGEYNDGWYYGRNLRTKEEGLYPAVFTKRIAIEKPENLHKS

T8: Bzz1-1, P38822
T8 sequence (P38822 478-572, looked up): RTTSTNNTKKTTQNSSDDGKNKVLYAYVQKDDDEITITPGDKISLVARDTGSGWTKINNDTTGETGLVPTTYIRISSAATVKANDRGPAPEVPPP

T9: Abp1, P15891
T9 sequence (P15891 535-592, looked up): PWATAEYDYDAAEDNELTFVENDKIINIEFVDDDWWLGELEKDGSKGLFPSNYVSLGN

T10: Boi2, P39969
T10 sequence (P39969 32-116, looked up): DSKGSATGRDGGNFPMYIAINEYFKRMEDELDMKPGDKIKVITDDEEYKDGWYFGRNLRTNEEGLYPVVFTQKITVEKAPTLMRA

T11: Lsb1, P53281
T11 sequence (P53281 45-122, looked up): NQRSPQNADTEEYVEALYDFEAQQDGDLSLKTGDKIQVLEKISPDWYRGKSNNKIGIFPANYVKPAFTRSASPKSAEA

T12: Hse1, P38753
T12 sequence (P38753 208-285, looked up): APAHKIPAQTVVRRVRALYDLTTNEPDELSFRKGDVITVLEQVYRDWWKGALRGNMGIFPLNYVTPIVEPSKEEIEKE

T13: Bzz1-2, P38822
T13 sequence (P38822 568-633, looked up): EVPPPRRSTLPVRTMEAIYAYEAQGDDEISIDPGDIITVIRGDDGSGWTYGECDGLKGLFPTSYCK

T14: Pin3, Q06449
T14 sequence (Q06449 53-122, looked up): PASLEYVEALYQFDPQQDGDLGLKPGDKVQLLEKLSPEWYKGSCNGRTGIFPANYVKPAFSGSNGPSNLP

T15: Bud14, P27637
T15 sequence (P27637 247-328, looked up): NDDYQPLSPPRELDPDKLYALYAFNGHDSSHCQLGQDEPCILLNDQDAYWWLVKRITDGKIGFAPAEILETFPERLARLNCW

T16: Myo5, Q04439
T16 sequence (Q04439 1072-1160, looked up): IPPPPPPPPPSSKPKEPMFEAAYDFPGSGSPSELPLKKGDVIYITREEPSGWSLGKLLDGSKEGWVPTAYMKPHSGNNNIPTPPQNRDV

T17: Lsb4, P32793
T17 sequence (P32793 402-468, looked up): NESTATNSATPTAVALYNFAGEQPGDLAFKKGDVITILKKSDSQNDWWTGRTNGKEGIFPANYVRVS

T18: Hof1, Q05080
T18 sequence (Q05080 590-669, looked up): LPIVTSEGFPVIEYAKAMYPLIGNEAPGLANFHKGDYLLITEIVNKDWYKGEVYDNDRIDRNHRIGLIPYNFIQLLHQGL

T19: Fus1, P11710
T19 sequence (P11710 432-512, looked up): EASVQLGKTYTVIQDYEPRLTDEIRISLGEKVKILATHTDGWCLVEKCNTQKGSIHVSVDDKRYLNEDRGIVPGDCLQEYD

T20: Bbc1, P47068
T20 sequence (P47068 1-78, looked up): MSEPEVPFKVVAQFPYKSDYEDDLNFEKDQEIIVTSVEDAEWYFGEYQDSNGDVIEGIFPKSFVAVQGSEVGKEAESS

T21: Sla1-2, P32790
T21 sequence (P32790 60-140, looked up): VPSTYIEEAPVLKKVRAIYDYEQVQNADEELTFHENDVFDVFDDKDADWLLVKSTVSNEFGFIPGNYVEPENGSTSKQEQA

B1: unnamed (peptide)
chain: KRRAPPPVPKKPSSR
B2: unnamed (peptide)
chain: RAPPPVPKKPSSRIA
B3: unnamed (peptide)
chain: NMLKKKPLKKPLKRF

target: T1, Cyk3, Q07533; assay: SPOT array; details: median of control spots 1451

SPOT intensity | Binder
4 | B1
0 | B2
2 | B3

target: T2, Pex13, P80667; assay: SPOT array; details: median of control spots 1341

SPOT intensity | Binder
47 | B1
395 | B2
18 | B3

target: T3, Sla1-3, P32790; assay: SPOT array; details: median of control spots 5475

SPOT intensity | Binder
4640 | B1
155 | B2
36 | B3

target: T4, Lsb3, P43603; assay: SPOT array; details: median of control spots 406

SPOT intensity | Binder
389 | B1
415 | B2
2 | B3

target: T5, Nbp2, Q12163; assay: SPOT array; details: median of control spots 357

SPOT intensity | Binder
751 | B1
1050 | B2
66 | B3

target: T6, Cdc25, P04821; assay: SPOT array; details: median of control spots 969

SPOT intensity | Binder
9 | B1
2 | B2
68 | B3

target: T7, Boi1, P38041; assay: SPOT array; details: median of control spots 1162

SPOT intensity | Binder
2 | B1
0 | B2
11 | B3

target: T8, Bzz1-1, P38822; assay: SPOT array; details: median of control spots 4446

SPOT intensity | Binder
1320 | B1
435 | B2
0 | B3

target: T9, Abp1, P15891; assay: SPOT array; details: median of control spots 935

SPOT intensity | Binder
626 | B1
673 | B2
303 | B3

target: GST; assay: SPOT array; details: median of control spots 978

SPOT intensity | Binder
3 | B1
1 | B2
6 | B3

target: Rvs167, P39743; assay: SPOT array; details: median of control spots 2707
Sequence (P39743 419-482): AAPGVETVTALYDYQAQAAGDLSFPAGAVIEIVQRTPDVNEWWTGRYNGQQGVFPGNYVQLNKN

SPOT intensity | Binder
165 | B1
45 | B2
0 | B3

target: T10, Boi2, P39969; assay: SPOT array; details: median of control spots 1161

SPOT intensity | Binder
1 | B1
0 | B2
1 | B3

target: T11, Lsb1, P53281; assay: SPOT array; details: median of control spots 388

SPOT intensity | Binder
1850 | B1
1600 | B2
0 | B3

target: T12, Hse1, P38753; assay: SPOT array; details: median of control spots 1727

SPOT intensity | Binder
412 | B1
857 | B2
187 | B3

target: T13, Bzz1-2, P38822; assay: SPOT array; details: median of control spots 4538

SPOT intensity | Binder
4500 | B1
590 | B2
46 | B3

target: Bem1-2, P29366; assay: SPOT array; details: median of control spots 4347
Sequence (P29366 139-227): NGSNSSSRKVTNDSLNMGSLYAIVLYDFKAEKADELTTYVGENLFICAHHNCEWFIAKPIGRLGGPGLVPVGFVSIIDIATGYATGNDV

SPOT intensity | Binder
961 | B1
592 | B2
30 | B3

target: T14, Pin3, Q06449; assay: SPOT array; details: median of control spots 2171

SPOT intensity | Binder
14 | B1
37 | B2
34 | B3

target: T15, Bud14, P27637; assay: SPOT array; details: median of control spots 956

SPOT intensity | Binder
9 | B1
3 | B2
33 | B3

target: T16, Myo5, Q04439; assay: SPOT array; details: median of control spots 471

SPOT intensity | Binder
144 | B1
15 | B2
1 | B3

target: T17, Lsb4, P32793; assay: SPOT array; details: median of control spots 397

SPOT intensity | Binder
150 | B1
180 | B2
1 | B3

target: Sho1, P40073; assay: SPOT array; details: median of control spots 1148
Sequence (P40073 287-367): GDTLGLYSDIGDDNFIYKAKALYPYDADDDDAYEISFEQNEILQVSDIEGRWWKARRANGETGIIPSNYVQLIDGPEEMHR

SPOT intensity | Binder
370 | B1
509 | B2
228 | B3

target: T18, Hof1, Q05080; assay: SPOT array; details: median of control spots 4086

SPOT intensity | Binder
6 | B1
4 | B2
14 | B3

target: Bem1-1, P29366; assay: SPOT array; details: median of control spots 4282
Sequence (P29366 55-141): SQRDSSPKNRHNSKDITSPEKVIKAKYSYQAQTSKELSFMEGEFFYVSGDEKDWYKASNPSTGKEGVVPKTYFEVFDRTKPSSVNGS

SPOT intensity | Binder
1 | B1
0 | B2
0 | B3

target: T19, Fus1, P11710; assay: SPOT array; details: median of control spots 1200

SPOT intensity | Binder
10 | B1
0 | B2
36 | B3

target: T20, Bbc1, P47068; assay: SPOT array; details: median of control spots 796

SPOT intensity | Binder
233 | B1
116 | B2
160 | B3

target: Myo3, P36006; assay: SPOT array; details: median of control spots 468

SPOT intensity | Binder
454 | B1
233 | B2
24 | B3

target: T21, Sla1-2, P32790; assay: SPOT array; details: median of control spots 712

SPOT intensity | Binder
0 | B1
0 | B2
2 | B3
